Fewer inactive variants are shown than the library holds.
Experiments:
biotinyl-Phe-oxazolone = assay: self-aminoacylation, catalytic enhancement (BFO) (fold over background); higher = more active; k-Seq, kA / k0A0; sequences stand for … in GGGAAUGGAUCCACAUCUACGAAUUC…UUCACUGCAGACUUGACGAAGCUG
Procedure, shortened: (§1)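 Mutagenized RNA pools (0.43 μM; 21-nt variable region) were treated with 2–1250 μM of each biotinyl-aminoacyl-oxazolone. Conditions were 50 μL HEPES/NaCl/KCl/MgCl2/CaCl2 buffer, 5% acetonitrile, pH 6.9–7.0, room temperature, 90 minutes. Catalytic enhancement, the median kA relative to the uncatalyzed rate, was derived from streptavidin capture, qPCR and Illumina sequencing.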

biotinyl-Ile-oxazolone = assay: self-aminoacylation, catalytic enhancement (BIO) (fold over background); higher = more active; k-Seq, kA / k0A0; sequences stand for … in GGGAAUGGAUCCACAUCUACGAAUUC…UUCACUGCAGACUUGACGAAGCUG
Procedure, shortened: as §1

biotinyl-Met-oxazolone = assay: self-aminoacylation, catalytic enhancement (BMO) (fold over background); higher = more active; k-Seq, kA / k0A0; sequences stand for … in GGGAAUGGAUCCACAUCUACGAAUUC…UUCACUGCAGACUUGACGAAGCUG
Procedure, shortened: as §1

biotinyl-Val-oxazolone = assay: self-aminoacylation, catalytic enhancement (BVO) (fold over background); higher = more active; k-Seq, kA / k0A0; sequences stand for … in GGGAAUGGAUCCACAUCUACGAAUUC…UUCACUGCAGACUUGACGAAGCUG
Procedure, shortened: as §1

biotinyl-Leu-oxazolone = assay: self-aminoacylation, catalytic enhancement (BLO) (fold over background); higher = more active; k-Seq, kA / k0A0; sequences stand for … in GGGAAUGGAUCCACAUCUACGAAUUC…UUCACUGCAGACUUGACGAAGCUG
Procedure, shortened: as §1

biotinyl-Trp-oxazolone = assay: self-aminoacylation, catalytic enhancement (BWO) (fold over background); higher = more active; k-Seq, kA / k0A0; sequences stand for … in GGGAAUGGAUCCACAUCUACGAAUUC…UUCACUGCAGACUUGACGAAGCUG
Procedure, shortened: as §1

Row | Sequence | self-aminoacylation (biotinyl-Phe-oxazolone) | self-aminoacylation (biotinyl-Ile-oxazolone) | self-aminoacylation (biotinyl-Met-oxazolone) | self-aminoacylation (biotinyl-Val-oxazolone) | self-aminoacylation (biotinyl-Leu-oxazolone) | self-aminoacylation (biotinyl-Trp-oxazolone)
1 | CUACUUCAAACAAUCAGCCUG [Fam1A.1 aminoacylation ribozyme variant] | 21 | 0.99 | 0.824 | 1.17 | 1.01 | 9.56
2 | AUUACCCUUGUCAACGAGUGA [Fam2.1 aminoacylation ribozyme variant] | 21.7 | 3.27 | 5.49 | 3.44 | 6.71 | 7.03
3 | AUUCCCCUGGUCAUCGAGUGA [Fam2.1 aminoacylation ribozyme variant] | 45.7 | 4 | 6.93 | 4.37 | 6.99 | 8.4
4 | AAGGUUGCUAAUAGUGGCAAG [Fam3.1 aminoacylation ribozyme variant] | 0.712 | 0.698 | 0.863 | 0.79 | 0.977 | 0.638
5 | UCACAGUUCAAGCAAUCGGUC [Fam1B.1 aminoacylation ribozyme variant] | 4.16 | 1.05 | 1.01 | 0.999 | 1.16 | 3.12
6 | UCACACUUUAAGCAAUCGGUC [Fam1B.1 aminoacylation ribozyme variant] | 0.841 | 0.869 | 0.694 | 0.857 | 0.791 | 0.764
7 | AAGUUUGCUAGUAGUCGCAUG [Fam3.1 aminoacylation ribozyme variant] | 0.822 | 0.903 | 0.737 | 0.873 | 0.808 | 1.4
8 | AUUACUCUGGUCAGCGAGUGA [Fam2.1 aminoacylation ribozyme variant] | 17.6 | 3.29 | 5.21 | 3.13 | 5.83 | 5.85
9 | AUUAUCCGGGUCAUCGAGUGA [Fam2.1 aminoacylation ribozyme variant] | 45.7 | 4.14 | 8.26 | 4.04 | 8.08 | 8.13
10 | AUUCUCCUGGUCAUCGAGUGA [Fam2.1 aminoacylation ribozyme variant] | 33.7 | 3.67 | 6.14 | 3.89 | 6.5 | 7.91
11 | AUAACCCUGGUCAUCGAUUGA [Fam2.1 aminoacylation ribozyme variant] | 0.646 | 0.94 | 0.883 | 0.974 | 1.02 | 0.392
12 | CCACACCUCAUGCAAUCGGUC [Fam1B.1 aminoacylation ribozyme variant] | 1.19 | 0.959 | 0.839 | 1.05 | 0.685 | 0.975
13 | AUUACCCUGGUCAAAGAGUGA [Fam2.1 aminoacylation ribozyme variant] | 45.6 | 4 | 8.35 | 4.26 | 8.08 | 10.5
14 | CUACUUCUAACAAUCGCUCUG [Fam1A.1 aminoacylation ribozyme variant] | 0.385 | 0.612 | 0.553 | 0.559 | 0.602 | 0.498
15 | AAGCUUGCUAAUAGUCACAAG [Fam3.1 aminoacylation ribozyme variant] | 4.35 | 1.64 | 1.5 | 1.35 | 1.65 | 1.28
16 | AAGUUUGCUAAUAGCCGCAUG [Fam3.1 aminoacylation ribozyme variant] | 2 | 1.07 | 1.12 | 1.1 | 1.19 | 1.54
17 | CUACUUCUAACAAUCGGUCCG [Fam1A.1 aminoacylation ribozyme variant] | 0.505 | 0.708 | 0.765 | 0.621 | 0.799 | 0.63
18 | CCAGACUUCAAGCAAUCGUUC [Fam1B.1 aminoacylation ribozyme variant] | 1.08 | 1.06 | 0.78 | 0.849 | 0.764 | 0.853
19 | GUACACUUCAAGCAAUCGGUC [Fam1B.1 aminoacylation ribozyme variant] | 21.1 | 1.55 | 1.29 | 1.34 | 1.64 | 18.4
20 | AUUCACCUACGUCAUCGGGUG [Fam2.2 aminoacylation ribozyme variant] | 36.7 | 3.24 | 5.27 | 3.38 | 6.98 | 4.79
21 | CCACACUUCAAGCAAUAGGUG [Fam1B.1 aminoacylation ribozyme variant] | 4.08 | 1.85 | 2.17 | 1.65 | 2.81 | 2.55
22 | AAGUUUGCUAAUAGUCGCUCG [Fam3.1 aminoacylation ribozyme variant] | 0.809 | 0.706 | 0.815 | 0.657 | 0.647 | 0.853
23 | AAGUUUGCUUAUACUCGCAAG [Fam3.1 aminoacylation ribozyme variant] | 0.761 | 0.779 | 0.863 | 0.814 | 0.66 | 0.554
24 | AAGUUUGCUUAUUGUCGCAAG [Fam3.1 aminoacylation ribozyme variant] | 0.903 | 0.771 | 0.641 | 0.713 | 0.686 | 0.97
25 | AAUCACCUACGUCAUCGGGUG [Fam2.2 aminoacylation ribozyme variant] | 53 | 4.41 | 6.56 | 3.79 | 6.01 | 7.27
26 | CUACUGCAAACAAUCGGUCUG [Fam1A.1 aminoacylation ribozyme variant] | 1.08 | 0.804 | 0.769 | 0.844 | 0.776 | 0.77

Row | Sequence | self-aminoacylation (biotinyl-Phe-oxazolone) | self-aminoacylation (biotinyl-Ile-oxazolone) | self-aminoacylation (biotinyl-Met-oxazolone) | self-aminoacylation (biotinyl-Val-oxazolone) | self-aminoacylation (biotinyl-Leu-oxazolone) | self-aminoacylation (biotinyl-Trp-oxazolone)
27 | AAGUUUACUAAUAGUCGCAAG [Fam3.1 aminoacylation ribozyme variant] | 2.7 | 1.4 | 1.23 | 1.32 | 1.3 | 1.5
28 | AAGUUUGCUAAAAGCCGCAAG [Fam3.1 aminoacylation ribozyme variant] | 1.42 | 0.613 | 0.604 | 0.689 | 0.63 | 1.08
29 | AAGUUUGGUAACAGUCGCAAG [Fam3.1 aminoacylation ribozyme variant] | 1.24 | 1.07 | 0.994 | 0.987 | 0.857 | 0.693
30 | AUUACCCUGGUCAUCGAGUUA [Fam2.1 aminoacylation ribozyme variant] | 26.4 | 4.08 | 10.8 | 4.86 | 10.3 | 8.28
31 | AUUCACCUACGUGAUCGGGUG [Fam2.2 aminoacylation ribozyme variant] | 20.2 | 2.19 | 2.81 | 2 | 3.64 | 3.44
32 | AUUCACCUAGGUCAACGGGUC [Fam2.2 aminoacylation ribozyme variant] | 0.507 | 0.899 | 0.915 | 1.07 | 0.807 | 0.902
33 | AUUCAUCCAGGUCAUCGGGUG [Fam2.2 aminoacylation ribozyme variant] | 47.8 | 4.96 | 7.87 | 4.75 | 9.76 | 6.96
34 | AAGUUUGCUAAUCGUUGCAAG [Fam3.1 aminoacylation ribozyme variant] | 1.13 | 0.834 | 0.824 | 0.881 | 0.77 | 0.987
35 | AUUCACAUAGGUCAUCGGGUA [Fam2.2 aminoacylation ribozyme variant] | 22.7 | 2.24 | 2.86 | 2.57 | 2.54 | 3.56
36 | AUUCACCUAGGUCUUCGCGUG [Fam2.2 aminoacylation ribozyme variant] | 16.6 | 2.95 | 4.3 | 3.96 | 4.5 | 3.32
37 | CUACAUCAAACCAUCGGUCUG [Fam1A.1 aminoacylation ribozyme variant] | 1.04 | 0.834 | 0.791 | 0.932 | 0.889 | 0.6
38 | AUUCACCUAGGUCAGCGAGUG [Fam2.2 aminoacylation ribozyme variant] | 25.3 | 3.44 | 4.93 | 3.34 | 6.37 | 5.84
39 | AUUCACCUAGUUCAUCAGGUG [Fam2.2 aminoacylation ribozyme variant] | 0.467 | 0.872 | 0.796 | 0.934 | 0.986 | 0.893
40 | AAGUUAUCUAAUAGUCGCAAG [Fam3.1 aminoacylation ribozyme variant] | 2.66 | 1.51 | 1.32 | 1.18 | 1.53 | 1.36
41 | CCAUACUUCCAGCAAUCGGUC [Fam1B.1 aminoacylation ribozyme variant] | 0.952 | 1.45 | 1.06 | 1.39 | 1.1 | 0.815
42 | AUUACCCUCGUCAUCGGGUGA [Fam2.1 aminoacylation ribozyme variant] | 24.1 | 2.39 | 3.84 | 2.77 | 4.5 | 3.81
43 | ACUUCCCUGGUCAUCGAGUGA [Fam2.1 aminoacylation ribozyme variant] | 41.8 | 4.96 | 9.66 | 5.69 | 9.49 | 12.1
44 | ACGACCCUGGUCAUCGAGUGA [Fam2.1 aminoacylation ribozyme variant] | 9.21 | 3.57 | 6.93 | 3.77 | 6.52 | 7.11
45 | AAGGUUGCUAAUAAUCGCAAG [Fam3.1 aminoacylation ribozyme variant] | 1.47 | 1.41 | 1.11 | 1.02 | 1.19 | 1.59
46 | CUACUUCAAACAAUGGGUCAG [Fam1A.1 aminoacylation ribozyme variant] | 0.92 | 0.6 | 0.648 | 0.589 | 0.651 | 0.5
47 | AAGUUUGCUAAUAGUCUUAAG [Fam3.1 aminoacylation ribozyme variant] | 25.7 | 1.16 | 1.24 | 1.11 | 1.11 | 6.3
48 | AUCCACCUCGGUCAUCGGGUG [Fam2.2 aminoacylation ribozyme variant] | 72.4 | 5.06 | 7.86 | 7 | 7.66 | 7.66
49 | AUUACACUGGUUAUCGAGUGA [Fam2.1 aminoacylation ribozyme variant] | 45.5 | 4.23 | 7.64 | 3.72 | 8.73 | 10.3
50 | CAACUUCGAACAAUCGGUCUG [Fam1A.1 aminoacylation ribozyme variant] | 2.22 | 1.21 | 1.1 | 1.15 | 0.999 | 2.15
51 | UAGUUUGCCAAUAGUCGCAAG [Fam3.1 aminoacylation ribozyme variant] | 2.96 | 1.61 | 1.77 | 1.61 | 1.87 | 1.99

From the supplement of paper PMC9233669
